Measured values published in the nanobody polyreactivity screen of Harvey et al. (2022).

Test: yeast display, Sf9 membrane polyspecificity reagent, FACS + sequencing; frameworks hold sequencing errors
Procedure, shortened: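 Polyreactivity labels are assigned by the sorting gate from which each nanobody was recovered. The gates were low and high (top ~1%), set on anti-HA fluorescence for expression and streptavidin fluorescence for reagent binding. Before sorting, galactose-induced (36–48 hours) yeast display cells were stained for 1 hour at 4 °C with 10% biotinylated, detergent-solubilized Sf9 membrane reagent.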

Row | Sequence | polyreactivity (PSR sort gate)
1 | QVQLVESGGGLVQAGGSLRLSCASSGFTFYYNAMGWYRQAPGQERELVASITRSGGRTYYSDSVKGRFTISRDNAKNTVYLQMNSLKPEDTAVYYCARRYPGGYYWGQGTHVTVSS | high polyreactivity
2 | QLQLVESGGGLVQAGGSLRLSCAASGSTFATYAMGWYRQAPGKESELVAVITRGGSTYYADSVKGRFTISRDNAKNTVYLQMNSLKPEDTAVYYCAAKAYTYYARIGFDYWGQGTQVTVSS | high polyreactivity
3 | QVQLVESGGGLVQAGGSLRLSCAASGFTFLRYAMGWYRQAPGKERELVAAISTSGGRTYYADSVKGRFTISRDNAKNTVYLQMNSLKPEDTAVYYCNAAGGYRTSPSDYWGQGTQVTVSS | high polyreactivity
4 | QVQLVESGGGLVQAGCSLRLTCPASGSIIKLYAMGWYRQAPGKEREMVAAITSVGSTYYADSVKGRFTISRDNAKNTVYFQMKSLKPEDTAVYYCAASVYYLYFHAKYDYWGQGTLVTVSS | low polyreactivity
5 | QVQLVESGGGLVQAGGSLRLSCAASGFTFTYNAMGWYRQAPGKERELVAAITLSGGSTYADSVKGRFTISRDNAKNTVYLQMNSLKPEDTAVYYCNADAGVYSANATDGYDYWGQGTQVTVSS | low polyreactivity
6 | QVQLLESGGGLVQAGGRHRLSCAASGRTFPGNAMGWYRKAPGKERELVAAISWSVDRTYYADSVKGRFTISRDNAKNTVYLQMNSLKPEDTSVYYCAAVEWWSSSLRMYYWGQGTQETVSS | low polyreactivity
7 | PVQLVESGGGLVQAGGSLRLSCACSGRIFIYNSMGWYRQATGKEREFVAAISSSGGSTYYADSVKGRFTISRDNAKNTVYLHLNSLKPEDTAVYYCAAGGWPYSGGWFFQPNYYYWGQGTQVTVSS | low polyreactivity
8 | QVQLVESGGGLVQAGGSLRLSCAASGFIFSRYAMGCYSPAPGKVIELVAAISSRGGSTYYADSVKGRFTISRDNAKNTVYLQMNSLKPEDTAVYYCAARGPTFGVDYGYWGQGTQVTLSS | high polyreactivity
9 | QVQLVESVGGLVQAGGSLRLSCAASGRTFGGNAMGWYRQAPGKERELVAVITGSGARTYYADSVKGRFTISRDNAKNTVYLQMNSLKPEDTAVYYCAAAGYSGQYRSYYWGQGTQVTVSS | high polyreactivity
10 | QVQLVESGRGLVQAGGSLRLSCAASGSTFGRYVMGWYRQAPGKERELVAAISKNAGSTYYADSVKGRFTISRDNAKNTVYLQMNSLKPEDTAVYYCNRERRYRNDYWGQGTQVTVSS | high polyreactivity
11 | QVQLVESGGGLVQAGGSLRLSSAASGRTFFPNAMGWYRQAPGKERELVAAISSGGGGTYYADSVKGRFTISRDKAKNTVYLQMNRLKPEDTAVYYCAGRNSKVEEEGNYWGQGTQVTVSS | low polyreactivity
12 | QVQLVESGGGLVQAGGSLRLSCAASGFIFSPYAMGWYRQAPGKVRELVAAISRRGGSTYYADSVKGRFTISRDNAKNTVYLQMNSLKPEDTAVYYCAAVYGASQVDYDYWGQGTQVTVSS | high polyreactivity
13 | QVQLVESGGGLVQAGGSLRLSCAASGITFTIYGMGWYRQATGKERELVAVISRRGGSTYYADSVKGRFTISRDNAKNTVYLQMNSLKPEDTAFYYCNTRTQGAKQYTGYDYWGQGTQVTVSS | high polyreactivity
14 | QVQLVESGGGLVQAGGSLRLSCAASGSIFADNAMGWDRQAPGKERELVAVISFSGSSTYYADSVKGRFTISRDNAKNTVYFQMNSVKPEDTAVYYWNAVRYRLERFDYWGQGTQVTVSS | high polyreactivity
15 | QVQLVESGGGLVQAGGSLRLSSAASGRTFAVYAMGWYRQAPGKERELVAAISSGGSTYYADSVKGRFTISRDNAKNTVYLPMNSLKPEDTAVYYCTARWGYRRGDWGQGTQVTVSS | high polyreactivity
16 | QVQLVESGGGLVQAGGSLRLSCAASGSTIYNYAMGWYRQATGKERELVAVISRSGGRTYYADSVKGRFTISRDNAKNTVYLQMNSLKPEDTAVYYCAADTYRGYDFDYWGQGTQVTVSS | high polyreactivity

Row | Sequence | polyreactivity (PSR sort gate)
17 | QVQLVESGGGLGQAGGSLSLSCAASGFNFSHYAMGWYIPAPGKERELVAAITRGGSTKYADSVKGRFTISRDNAKNTVDLEMNSLKPEDTAVYYCAKDKTYRNVRGVGYWGQGTQVTVSS | high polyreactivity
18 | QVQLVESGGGLVQAGGSLRLSCAASGNTFYFYAMGWYRQAPGKERELVAAIRWSGSRTYADSVKGRFTISRDNAKNTVYLQMNSLKPEDTAVYYCNADSIWGYDYWGQGTQVTVSS | high polyreactivity
19 | QVQLVESGGGLVQAGGSLRLSCAASGLTFDGNAMGWYRQAPGKERELVATIRSGGGTNYADSVKGRFTISRDNAKNTVYLQMNSLKPEDTAVYYCNADYRSVYSPVQYPGEYYYWGQGTQVTVSS | low polyreactivity
20 | QVQLVESGGGLVQAGGSLRLSCAASGRTFYVYTMGWYRQAPGKERELVAAITTGGSTNYADSVKGRFTISRDNAKNTVYLQMNSLKPEDTAVYYCAARVSTVFKRYYYWGQGTQVTVSS | high polyreactivity
21 | QVQLVESGGGLVQAGGSLRLSCAASGSIFYYYAMGWYRQAPGKERELVAAITSGGSTYYADSVKGRFTISRDNAKNTVYLQMNSLKPEDTAVYYCAAYGYYRGYPFHWYDYWGQGTQVTVSS | high polyreactivity
22 | QVQLVESGGGLVQAGGSLRLSFSASGSTFTSNAMGWYRQAPGKERELVASISGSGGRTYYADSVKGRFTISRDNAKNTVYLQMNSLKPEDTAVYYCNAESRNLYSTQFDYWGQGTQVTVSS | low polyreactivity
23 | QVQLVESGGGLVQAGGSLGLSCAASGRTFGPYAMGWYRQAPGKERELVAAISASGASTSYADSVKGRFTIARDNAKNTVYLQMNSLKPEDTAVYYCARSYYHRPFGYWGQGTQVTVSS | low polyreactivity
24 | QVQLVESGGGLVQAGGSLRLSCAASGRIFKGNAMGWYRQAPGKEREFVADISQRGGSTYYADSVKGRFTISRDNAKNTVYLQMNSLKPEDTAVYYCAAVRKSVGVKYDYWGQGTQVTVSS | high polyreactivity
25 | QVQLEESGGGLVQAGGSLRLSCAASGSIFYVYAIGSYRQAPRKERELVAAISQSGGNTYYADSVKGRFTISRDNAKNTVYLQMNSLKPEDTAVYYCNAVYYYYAGNYWGQGTQVTVSS | high polyreactivity
26 | QVHLVESGGCLVQAGCSLRLSCAASGRTFGWNVMGWYRQAPGTERELVAAISGSGGSTYYADSVKGRFTISRDNAKNTVYLQMNSLKPEDTAVYYCAALYGPGREYDYWGQGTQVTVSS | low polyreactivity
27 | QVQLVESGGGLVQAGGSLRLSCAASGGIYLDYAMGWYRQAPGKERELVADINSGADTSYADSVKGRFTISRDNAKNTVYLQMNSLKPEDTAVYYCADDIYVFNGQVYSYGYGYWGQGTQVTVSS | low polyreactivity
28 | QVQLVESGGGLVQAGGSLRLSCAASGRTFKLYAMGWYRQAPGKERELVAALSIRGTSTYYADSVKGRFTISRDNAKNTVYLQMNSLKPEDTAVYYCAAEDRYGYYLVRWQGYYYWGQGTQVTVSS | low polyreactivity
29 | QVQHVESGGGLVQAGGSLRLSSAASGRIFKRNALGWYRQAPGKEREMVATISGSGGSTYYADSVKGRFTISRDNAKNTVYLQMNSLNPEDTAVYYCAAGYKSYWRLSSPKMDYWGQGTQVTVSS | high polyreactivity
30 | QVQLVESGGGLVQAGGSLRLSCAASGSTIEFNAMGWYRQAPGKERELVAAISGSGASTYYADSVKGRFTISRDNAKNTVYVQMNSLKPEDTAVYYCNADSLYYDYQTVDVQALDYWGQGTQVTVSS | low polyreactivity
31 | QVQLVESGGGLVQAGGSLRLSCAASVFISSWYDMGWYRQAPGKERQLVAAIRSSGGNTYYADSVKGRFTISRDNAKNTVYLQMNSLKPEDTAVYYCAKDWKSEDGGYYWGQGTQVTVSS | high polyreactivity
32 | QVQLVESGGGLVQAGGSLRLSCAASGSIFWYYAMGWYRQAPGKERELVAAISSGGSTYYADSVKGRYTISRDNAKNTVYLQMNSLKPEDTAVYYCAAGAFGQILNYWGQGTQVTVSS | high polyreactivity
